Experimental findings from patent publication US20260242839A1, “GLYCOSIDE PRODUCT BIOSYNTHESIS AND RECOVERY” (Manus Bio Inc., priority 2023, published 2026) are described below.

Where a chain is given by its changes, count along the chain named. Names may count otherwise.

Test [1] has as its system Mog. IIE or Mog. IE. As to the kind of experiment: branched glycosylation reactions by cells expressing UGT enzymes. The format is cell-based, E. coli. To be noted: Mog. IIE or Mog. IE fed; 37° C., 48 hr; LC-MS/MS. The procedure: Mog. IIE or Mog. IE was fed to cells expressing various UGT enzymes. Reactions were incubated at 37° C. for 48 hr. Products were quantified by LC-MS/MS with authentic standards of each compound. “Indirect” evidence means that consumption of substrate was observed.

The subject of test [2] is steviol glycoside. Nature of the test: steviol glycoside bioconversion by E. coli expressing individual mutations of UGT SEQ ID NO: 14. To be noted: fold improvement of % conversion vs parent UGT SEQ ID NO: 14; stevia leaf extract and glucose fed; 37° C., 48 hr. The format is cell-based. The essentials:
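E. coli strains expressing single mutants of the parent UGT were fed stevia leaf extract and glucose and incubated at 37 °C for 48 hr. Steviol glycoside conversion was quantified by reverse-phase LC-DAD. Fold improvement is relative to % conversion by the parent enzyme.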

B1: SEQ ID NO: 77: SgUGT94-289-3.2 (Siraitia grosvenorii) (protein)
chain: MADAAQQGDTTTILMLPWLGYGHLSAFLELAKSLSRRNFHIYFCSTSVNLDAIKPKLPSSFSDSIQFVELHLPSSPEFPPHLHTTNGLPPTLMPALHQAFSMAAQHFESILQTLAPHLLIYDSLQPWAPRVASSLKIPAINFNTTGVFVISQGLHPIHYPHSKFPFSEFVLHNHWKAMYSTADGASTERTRKRGEAFLYCLHASCSVILINSFRELEGKYMDYLSVLLNKKVVPVGPLVYEPNQDGEDEGYSSIKNWLDKKEPSSTVFVSFGSEYFPSKEEMEEIAHGLEASEVNFIWVVRFPQGDNTSGIEDALPKGFLERAGERGMVVKGWAPQAKILKHWSTGGFVSHCGWNSVMESMMFGVPIIGVPMHVDQPFNAGLVEEAGVGVEAKRDPDGKIQRDEVAKLIKEVVVEKTREDVRKKAREMSEILRSKGEEKFDEMVAEISLLLKI
Consider B1, for which, in test [1], the “C3 1-2” value is “No”, the “C3 1-6” value was “Yes”, the “C24 1-2” value is reported as “No” and the “C24 1-6” value was “Yes”.

B2: A79P: mutation to UGT enzyme of SEQ ID NO: 14 (protein)
chain: MATKNSSGMSLAERFWLTLSRSSLVVGRSCVEFEPETVPLLSTLRGKPITFLGLMPPLHEGRREDGEDATVRWLDAQPPKSVVYVALGSEVPLGVEKVHELALGLELAGTRFLWALRKPTGVSDADLLPAGFEERTRGRGVVATRWVPQMSILAHAAVGAFLTHCGWNSTIEGLMFGHPLIMLPITGDQGPNARLIEAKNAGLQVARNDGDGSFDREGVAAAIRAVAVEEESSKVFQAKAKKLQEIVADMACHERYIDGFIQQLRSYKDDSGYSSSYAAAAGMHVVICPWLAFGHLLPCLDLAQRLASRGHRVSFVSTPRNISRLPPVRPALAPLVAFVALPLPRVEGLPDGAESTNDVPHDRPDMVELHRRAFDGLAAPFSEFLGTACADWVIVDSFHHWAAAAALEHKVPCAMMLLGSAEMIASIADERLEHAETESPAAAGQGRPAAAPTFEVARMKLIR
Consider B2, for which, in test [2], the “FI %Stevioside→rebE” value is 1.4 and the “FI %rebA→rebD” value worked out at 1.3.

B3: P56A: mutation to UGT enzyme of SEQ ID NO: 14 (protein)
chain: B2 chain with P56A, P79A
As for B3, in test [2], the “FI %Stevioside→rebE” value amounted to 1.5 and the “FI %rebA→rebD” value worked out at 1.3.

B4: S323A: mutation to UGT enzyme of SEQ ID NO: 14 (protein)
chain: B2 chain with P79A, S323A
For B4, in test [2], the “FI %Stevioside→rebE” value stood at 1.3 and the “FI %rebA→rebD” value was 1.3.

B5: A130D: mutation to UGT enzyme of SEQ ID NO: 14 (protein)
chain: B2 chain with P79A, A130D
Regarding B5, in test [2], the “FI %Stevioside→rebE” value stood at 1.4 and the “FI %rebA→rebD” value is reported as 1.3.

B6: H400Y: mutation to UGT enzyme of SEQ ID NO: 14 (protein)
chain: B2 chain with P79A, H400Y
With B6, in test [2], the “FI %Stevioside→rebE” value was determined as 1.2 and the “FI %rebA→rebD” value came out at 1.3.

B7: S266R: mutation to UGT enzyme of SEQ ID NO: 14 (protein)
chain: B2 chain with P79A, S266R
B7: in test [2], the “FI %Stevioside→rebE” value is 1.4 and the “FI %rebA→rebD” value was 1.3.

B8: S42E: mutation to UGT enzyme of SEQ ID NO: 14 (protein)
chain: B2 chain with S42E, P79A
For the molecule B8, in test [2], the “FI %Stevioside→rebE” value was determined as 1.8 and the “FI %rebA→rebD” value was 1.3.

B9: W401F: mutation to UGT enzyme of SEQ ID NO: 14 (protein)
chain: B2 chain with P79A, W401F
Consider B9, for which, in test [2], the “FI %Stevioside→rebE” value was 1.3 and the “FI %rebA→rebD” value was 1.3.

B10: SEQ ID NO: 75: CeUGT_1,6 (Coffea eugenioides) (protein, listed as Coffea sp.)
chain: MAENHATFNVLMLPWLAHGHVSPYLELAKKLTARNFNVYLCSSPATLSSVRSKLTEKFSQSIHLVELHLPKLPELPAEYHTTNGLPPHLMPTLKDAFDMAEPNFCNVLKSLKPDLLIYDLLQPWAPEAASAFNIPAVVFISSSATMTSFGLHFFKNPGTKYPYGNTIFYRDYESVFVENLKRRDRDTYRVVNCMERSSKIILIKGFKEIEGKYFDYFSCLTGKKVVPVGPLVQDPVLDDEDCRIMQWLNKKEKGSTVFVSFGSEYFLSKEDMEEIAHGLELSNVDFIWVVRFPKGENIVIEETLPKGFFERVGERGLVVNGWAPQAKILTHPNVGGFVSHCGWNSVMESMKFGLPIIAMPMHLDQPINARLIEEVGAGVEVLRDSKGKLHRERMAETINKVTKEASGESVRKKARELQEKLELKGDEEIDDVVKELVQLCATKNKRNGLHYN
Take B10: in test [1], the “C3 1-2” value is recorded as “Yes”, the “C3 1-6” value was “Yes”, the “C24 1-2” value is listed as “Yes” and the “C24 1-6” value was “Yes”.

B11: SEQ ID NO: 60: UGT_1,6 (Coffea Arabica) (protein, listed as Coffea arabica)
chain: MENHATFNVLMLPWLAHGHVSPYLELAKKLTARNFNVYLCSSPATLSSVRSKLTEKFSQSIHLVELHLPKLPELPAEYHTTNGLPPHLMPTLKDAFDMAKPNFCNVLKSLKPDLLIYDLLQPWAPEAASAFNIPAVVFISSSATMTSFGLHFFKNPGTKYPYGNAIFYRDYESVFVENLTRRDRDTYRVINCMERSSKIILIKGFNEIEGKYFDYFSCLTGKKVVPVGPLVQDPVLDDEDCRIMQWLNKKEKGSTVFVSFGSEYFLSKKDMEEIAHGLEVSNVDFIWVVRFPKGENIVIEETLPKGFFERVGERGLVVNGWAPQAKILTHPNVGGFVSHCGWNSVMESMKFGLPIIAMPMHLDQPINARLIEEVGAGVEVLRDSKGKLHRERMAETINKVMKEASGESVRKKARELQEKLELKGDEEIDDVVKELVQLCATKNKRNGLHYY
On to B11, for which, in test [1], the “C3 1-2” value is “No”, the “C3 1-6” value was “Yes”, the “C24 1-2” value is on record as “Yes” and the “C24 1-6” value was “Yes”.

B12: SEQ ID NO: 76: CeUGT_1,6.2 (Coffea eugenioides) (protein, listed as Coffea sp.)
chain: MAENHATFNVLMLPWLAHGHVSPYLELAKKLTARNFNVYLCSSPATLSSVRSKLTEKFSQSIHLVELHLPKLPELPAEYHTTNGLPPHLMPTLKDAFDMAKPNFCNVLKSLKPDLLIYDLLQPWAPEAASAFNIPAVVFISSSATMTSFGLHFFKNPGTKYPYGNAIFYRDYESVFVENLTRRDRDTYRVINCMERSSKIILIKGFNEIEGKYFDYFSCLTGKKVVPVGPLVQDPVLDDEDCEIMQWLNKKEKVSTVFVSFGSEYFLSKKDMEEIAHGLELSNVDFIWVVRFPKGENIVIEETLPKGFFERVGERGLVVNGWAPQAKILTHPNVGGFVSHCGWNSVMESMKFGLPIIAMPMHLDQPINARLIEEVGAGVEVLRDSKGKLHRERMAETINKVMKEASGESVRKKARELQEKMDLKGDEEIDDVVKELVQLCATKNKRNGLHYY
Regarding B12, in test [1], the “C3 1-2” value is on record as “No”, the “C3 1-6” value is recorded as “Yes”, the “C24 1-2” value is on record as “No” and the “C24 1-6” value is given as “Yes”.
